The values that follow come from paper PMC4431665.

One assay concerns the target Hsp70. The assay can be described thus: comparative BS3 cross-linking with LC-MS/MS. The note with it: reference: Hsp70 expressed in E. coli; sites T504.
The target in assay [1] is Hsp70 E. coli V438F/T504E substrate-binding-deficient variant (human) (UniProt P0DMV8). The assay can be described thus: not stated; dimerization of the V438F/T504E mutant (Figure S4B); method not given.
Assay [2] addresses Hsp70 expressed in E. coli (Hsp70 E. coli) (human) (UniProt P0DMV8). The assay can be described thus: native MS; 1:1 ratio of 13C-labeled Hsp70 E. coli and Hsp70Sf9 with catalytic amounts of Hsp40 and ATP.
The target is the same in assay [3]. The assay can be described thus: native MS; 1:1 mixture of 13C-labeled Hsp70 E. coli and Hsp70Sf9 at 8 μM; parameters designed to preserve non-covalent interactions.
The target is the same in assay [4]. The assay can be described thus: native MS; Hsp70 E. coli at a higher concentration under which dimerization occurs, with phosphatase, 48 hr (Figures S1A and S1B).
The target of assay [5] is Hsp70 E. coli T504E phosphomimic variant (human) (UniProt P0DMV8). The assay can be described thus: native MS; labeled wild-type Hsp70 E. coli and the T504E variant examined in a 1:1 ratio (Figure S1C).
Assay [6] deals with Hsp90 (human) (UniProt P07900). The assay can be described thus: native MS; Hsp70GR complex formed with catalytic Hsp40 (0.3 μM) and ATP, then incubated with Hsp90_(2)Hop; Hsp90, Hop, Hsp70 and GR equimolar (1 μM each), or two Hsp70 per Hsp90_(2).
Assay [7] concerns the target Hsp90 (human) (UniProt P07900). The assay can be described thus: native MS; Hsp90 and Hop with either Hsp70 E. coli or Hsp70Sf9, in the absence of Hsp40.
The target in assay [8] is Hsp90 (human) (UniProt P07900). The assay can be described thus: native MS; stoichiometric amounts of p23 added to the client-loading complex Hsp90_(2)Hsp70_(2)HopGR.
For assay [9], the target named is Hsp70 expressed in Sf9 insect cells (Hsp70Sf9) (human) (UniProt P0DMV8). The assay can be described thus: cross-linking; BS3 on Hsp70Sf9 in excess ATP (also ADP, ATPγS); SDS-PAGE, monomer and dimer bands digested with trypsin, LC-MS/MS.
The target is the same in assay [10]. The assay can be described thus: native MS; 1:1 ratio of 13C-labeled Hsp70 E. coli and Hsp70Sf9 with catalytic amounts of Hsp40 and ATP.
Assay [11] shares this target. The assay can be described thus: native MS; 1:1 mixture of 3 μM 13C-labeled Hsp70 E. coli and Hsp70Sf9, incubated without phosphatase in 100 mM AmAc pH 7.5 at 4°C for 16 hr; high backing pressure.
For assay [12], the target named is Hsp90_(2)Hop complex (human) (UniProt P07900). The assay can be described thus: native MS; Hsp90 and Hop with either Hsp70 E. coli or Hsp70Sf9, in the absence of Hsp40.
Assay [13] addresses Hsp70 expressed in Sf9 insect cells (Hsp70Sf9) (human) (UniProt P0DMV8). The assay can be described thus: native MS; 1:1 mixture of 13C-labeled Hsp70 E. coli and Hsp70Sf9 at 8 μM; parameters designed to preserve non-covalent interactions.
Assay [14] has the same target. The assay can be described thus: native MS; 2 μM Hsp70Sf9, 0.5 μM Hsp40, 200 μM ATP/Mg2+, binding buffer with 50, 100 or 300 mM KCl, 1 hr at room temperature; buffer exchanged to 100 mM AmAc.
A further assay has as its target Yeast Hsp40 (yeast) (UniProt P25491). The assay can be described thus: native MS; Hsp40 alone, 100 mM ammonium acetate pH 7.5 (Figure S5C).

On to Hsp70 Hsp70 expressed in Sf9 cells, for which the “other: K569-K108 cross-link intensity ratio” value with Hsp70 was “stronger; reference 1.0”.

The substance “Hsp70 E. coli V438F/T504E substrate-binding-deficient variant (from UniProt P0DMV8 1-641) (natural protein)” displayed a stoichiometry N in [1] of 2.

Turning to “Hsp70 expressed in E. coli (Hsp70 E. coli) (from UniProt P0DMV8 1-641) (natural protein)”, the stoichiometry N in assay [2], in assay [3] and in assay [4] was 2 in each case.

In the case of “Hsp70 E. coli T504E phosphomimic variant (from UniProt P0DMV8 1-641) (natural protein)”, the stoichiometry N in [5] came out at 2.

Take “Hsp90 (from UniProt P07900 1-732) (natural protein)”: the stoichiometry N with Hsp90 (human) [6], in the assay with Hsp90 (human) [7] and with Hsp90 (human) [8] was 2 throughout.

For the substance “Hsp70 expressed in Sf9 insect cells (Hsp70Sf9) (from UniProt P0DMV8 1-641) (natural protein)”, the stoichiometry N in [9], in assay [10], in assay [11], in assay [12], in [13] and in assay [14] was 2 throughout.

In turn, “Yeast Hsp40 (from UniProt P25491 1-409) (natural protein)” had a stoichiometry N with Yeast Hsp40 (yeast) of 2.

One may read the stoichiometry N as a count of units in the complex or per binding partner.
